# Assay results as given in paper PMC10998878, “Inhibition of acyl-CoA binding protein (ACBP) by means of a GABAARγ2-derived peptide” (Cell Death & Disease, 2024).
# Where no end group is shown, it is not given here.
# B1: recombinant ACBP/DBI protein: recombinant acyl-CoA binding protein encoded by diazepam binding inhibitor (protein)
# chain: MSQAEFDKAAEEVKRLKTQPTDEEMLFIYSHFKQATVGDVNTDRPGLLDLKGKAKWDSWNKLKGTSKESAMKTYVEKVDELKKKYGI
# modifications: biotin (site not stated; for the SPR chip)
# B2: GABAARγ2-derived eicosapeptide, wild type (GABAARγ2-EP-WT) (peptide)
# peptide: INMEYTIDIFFAQTWYDRRL
# notes: GABAA receptor gamma-2 subunit (GABRG2), 20-mer with F77 in position 10; 100% identical in zebrafish, chicken, mouse and human; Stocked in DMSO at 1 mg/mL; used without a stated biotin in SPR and in the functional tests; also called GABAARγ2 WT peptide; WT EP; source: synthetic peptide (Biosynth ltd)
# Columns and labels:
# [1] = test system: native ACBP/DBI protein (mouse liver extracts); assay: Pull down / immunoprecipitation of native ACBP/DBI from liver extracts; assay type: binding; conditions: mouse liver protein extract (500 μg), peptide-coated beads, overnight 4 °C, immunoblot for ACBP
# Description: The physical interaction between the native ACBP and GABAARγ2 peptides was examined by standard immunoprecipitation (IP) and immunoblotting protocols. In detail, liver protein extracts (500 μg) were immunoprecipitated on protein A/G-Sepharose beads (Merck Millipore, Burlington, MA, USA, #GE17-0618-01) coated with (1× 2× 4×) either GABAARγ2 wild type (WT) or mutated (F77I) eicosapeptide (Biosynth ltd) or its negative control (PBS). Each IP reaction was incubated overnight (4 °C) in a rotation chamber followed by three consecutive rounds of PBS washing the next day. Each washing round included a PBS resuspension of the pellet and a re-centrifugation (12,000 × g, 4 °C). Finally, beads were resuspended in 20 μL of NUPAGE 4× buffer (Life Technologies, CA, USA, #NP0008), heated at 100 °C (10 min), followed by standard immunoblotting for the ACBP protein (Abcam #ab231910).
# Fig. 5 Biophysical and biochemical detection of a direct interaction between ACBP/DBI and the GABAARγ2-derived eicosapeptide. A Schematic representation of the GABAAR and the GABAARγ2-derived eicosapeptides. B Surface plasmon resonance kinetics of ACBP-GABAARγ2-derived eicosapeptide (WT and F77I) interactions. Representative ACBP immunoblot (C) from control- or GABAARγ2-immunoprecipitated samples. Anti-GABAARγ2 immunoprecipitation (IP) assay was employed in order to validate the GABAARγ2 WT peptide interaction with native ACBP (in murine hepatic protein extracts), and quantification (D). […] For statistical analysis p value (indicating statistical comparisons with the control condition) was calculated by Mann–Whitney U-test. E Anti-GABAARγ2 IP assay to address the physical interaction between GABAARγ2 peptides and murine hepatic ACBP protein. Interaction was validated using an increasing gradient of biotinylated WT/F77I peptides that were bound on the surface of streptavidin beads as part of the IP assay. […]
# [2] = test system: Huh-7 cells; assay: WST-8 conversion (metabolic activation) by Huh-7 cells; assay type: cell-based, human; conditions: for effect on RecACBP/DBI-stimulated WST-8 conversion: then RecACBP/DBI 4 h, n = 4
# Description: Media and cell culture supplements were purchased from Gibco-Invitrogen (Carlsbad, CA, USA). Plasticware was purchased from Corning B.V. Life Sciences (Schiphol-Rijk, The Netherlands). Unless reported otherwise, the cell line used in this study was cultured at standard conditions (37 °C, 5% CO2, Dulbecco’s modified Eagle’s medium containing 10% fetal bovine serum, 10 mM HEPES buffer, 100 mg/L sodium pyruvate, 100 U/mL penicillin G sodium, and 100 µg/mL streptomycin sulfate). 2-deoxy-D-glucose (# D8375) and rotenone (# R8875) were purchased from Sigma (Burlington, MA, USA). Human hepatocellular carcinoma (Huh-7) cell line was used for in vitro experiments. Cells were plated in 6- or 96-well plates and grown for 24 h before treatments.
# (§1) WST-8 conversion assays were conducted utilizing the Cell Counting Kit-8 (Sigma-Aldrich, #96992). Cells were seeded in a 96-well plate at a density of 3000 cells per well and incubated overnight for adherence. Then, the culture medium was removed, and fresh medium containing the specified treatments was added to the wells. Immediately following the addition of treatments, 10 μL of CCK-8 reagent was introduced to each well. Subsequently, the cells were incubated for 4.5 h at 37 °C to facilitate the conversion of WST-8 in response to cellular activity. Following the incubation period, the absorbance at 450 nm was quantified using a VICTOR® Nivo™ microplate reader. This measurement served as an indicator of WST-8 conversion, reflecting cellular metabolic activity.
# Fig. 6 Inhibition of the metabolic effects of ACBP/DBI on hepatocytes by the GABAARγ2-derived eicosapeptide. A WST-8 conversion by murine primary hepatocytes treated with increasing concentrations of recombinant ACBP/DBI protein (RecACBP/DBI) for 4 h. Hepatocytes were isolated from tamoxifen-induced Acbp/Dbi f/f or Acbp/Dbi KO full-body genetic background mice (white- or blue-colored graphs respectively). […] For statistical analysis p values are calculated by one-way ANOVA. B WST-8 conversion by control (shUNR) and ACBP/DBI-knocked down (shACBP/DBI) human Huh-7 cells treated with increasing concentrations of RecACBP/DBI for 4 h. shUNR and shACBP/DBI cells are represented by white- or blue-colored graphs respectively. […] C WST-8 conversion by Huh-7 cells treated with RecACBP/DBI or negative control (4 h). Cells were pre-treated with 2-deoxy-D-glucose (2-Deoxy-D-glu; 300 µM) or vehicle (2 h). […] D WST-8 conversion by Huh-7 cells treated with RecACBP/DBI or negative control (4 h). Cells were pre-treated with rotenone (0.5 µM) or vehicle (2 h). […] E WST-8 conversion by Huh-7 cells treated with RecACBP/DBI or negative control (4 h). Prior to administration, RecACBP/DBI was overnight pre-incubated with monoclonal antibody (α-ACBP/DBI) or isotype IgG1. […] F WST-8 conversion by Huh-7 cells treated with RecACBP/DBI or negative control (4 h). Prior to administration, RecACBP/DBI was overnight pre-incubated with GABAARγ2 (WT or F77I-mutated) eicosapeptides.
# [3] = test system: primary mouse hepatocytes; assay: WST-8 conversion (metabolic activation) by primary hepatocytes; assay type: cell-based; conditions: Acbp/Dbi f/f and KO, increasing concentrations of RecACBP/DBI, 4 h (text: within 4.5 h), n = 3
# Description: After filtration through a 100 µm cell strainer and successive centrifugations at 30 × g, 4 °C for 5 min, cells were resuspended in the following attachment culture medium: DMEM/F12, 20 mM HEPES (pH = 7.4), 5 mM glucose, 10% FBS (Sigma), 5 mg/mL BSA, 100 U/mL penicillin, and 100 μg/mL streptomycin. The cells were then purified by density gradient centrifugation using an isotonic solution of Percoll (GE Healthcare Bio-Sciences AB, Uppsala, Sweden). Cell viability was assessed using Trypan blue exclusion. Cells were plated in a 96-well plate overnight to facilitate cell attachment before proceeding with experiments.
# as §1, with “Subsequently, the cells were incubated for 4.5 h at 37 °C to facilitate the conversion of WST-8 in response to cellular activity.” left out, “This measurement served as an indicator of WST-8 conversion, reflecting cellular metabolic activity.” left out
# Fig. 6 Inhibition of the metabolic effects of ACBP/DBI on hepatocytes by the GABAARγ2-derived eicosapeptide. […] For statistical analysis p values are calculated by one-way ANOVA. […]
# [4] = test system: C57BL/6 mice; assay: Food intake after intravenous injection; assay type: in vivo, mouse; conditions: i.v., 0.5 mg/kg, after 24 h starvation, cumulative food intake 30 min, n = 4 to 9
# Description: Prior to experimentation, mice were subjected to 24 h starvation followed by individual housing and acclimatization in individual cages (2 h). Subsequently, mice were intravenously (i.v.) injected with recombinant ACBP/DBI protein (RecACBP/DBI) (total volume of 200 μL, 0.5 mg/kg body weight), either alone or in combination with GABAARγ2 peptides (5× molar excess). Cumulative food intake was then analyzed as previously described. Prior to i.v. injections, the RecACBP mixes were pre-incubated (16 h, 4 °C) with GABAARγ2 peptides.
# [5] = target: T1, recombinant murine ACBP/DBI (acyl-CoA binding protein / diazepam binding inhibitor) (mouse, UniProt P31786 1-87, biotin (site not stated; for the SPR chip)); assay: SPR; Biacore 2000; biotinylated ACBP/DBI immobilised on SA chip (1600 RU); peptides injected at 10 µM and 100 µM in HBS-EP, 30 µL/min, 25 °C; association 4 min, dissociation 5 min; control surface streptavidin alone; conditions: both partners purified
# T1 construct: Biotinylated for immobilisation on the SA chip; in the food intake experiment murine RecACBP/DBI was injected and no biotin is mentioned; also called RecACBP/DBI; recombinant ACBP/DBI; source: recombinant, from the Institute of Psychiatry and Neuroscience of Paris, France
# T1 sequence (looked up): B1 chain
molecule,measurement,setting,value
"Biotinylated GABAARγ2-EP-WT: Biotinylated GABAARγ2-EP-WT immobilized on streptavidin-precoated beads (INMEYTIDIFFAQTWYDRRL; also: biotin, site not given here)","pull down of endogenous/native ACBP/DBI, in words",[1],absorbed endogenous ACBP/DBI protein from mouse liver extracts
"C=C(C)[C@H]1Cc2c(ccc3c2O[C@@H]2COc4cc(OC)c(OC)cc4[C@@H]2C3=O)O1 [rotenone, reference compound]",effect on RecACBP/DBI-stimulated WST-8 conversion,[2]; pre-treated with rotenone 0.5 µM for 2 h,abolished
"O=CC[C@@H](O)[C@H](O)[C@H](O)CO [2-deoxy-D-glucose, reference compound]",effect on RecACBP/DBI-stimulated WST-8 conversion,[2]; pre-treated with 2-deoxy-D-glucose 300 µM for 2 h,abolished
B1,"WST-8 conversion, metabolic activation by the substance","[2]; shUNR and shACBP/DBI, increasing concentrations of RecACBP/DBI, 4 h (text: within 4.5 h), n = 8–9",increase in the capacity to reduce
same,"WST-8 conversion, metabolic activation by the substance",[3],increase in the capacity to reduce
same,"food intake / appetite, effect of recombinant ACBP/DBI",[4],induced an increase in appetite
B2,binding result,[5],binds
